Data from patent publication US20080038257A1 (AVEO PHARMACEUTICALS, published 2008).
Where two headings read alike, the source gives them in different places.

Columns and labels:
Assay in all cases: cell-based or functional assay
[1] = biological target: T1, recombinant human HGF (R&D Systems, Catalog No. 294-HGN-025) (human, UniProt P14210 32-728)
[2] = biological target: T1, recombinant human HGF (R&D Systems, …); remark: listed apart in the source
[3] = biological target: T1, recombinant human HGF (R&D Systems, …); remark: listed apart in the source
[4] = biological target: T1, recombinant human HGF (R&D Systems, …); remark: listed apart in the source

T1 sequence (P14210 32-728 limits assumed): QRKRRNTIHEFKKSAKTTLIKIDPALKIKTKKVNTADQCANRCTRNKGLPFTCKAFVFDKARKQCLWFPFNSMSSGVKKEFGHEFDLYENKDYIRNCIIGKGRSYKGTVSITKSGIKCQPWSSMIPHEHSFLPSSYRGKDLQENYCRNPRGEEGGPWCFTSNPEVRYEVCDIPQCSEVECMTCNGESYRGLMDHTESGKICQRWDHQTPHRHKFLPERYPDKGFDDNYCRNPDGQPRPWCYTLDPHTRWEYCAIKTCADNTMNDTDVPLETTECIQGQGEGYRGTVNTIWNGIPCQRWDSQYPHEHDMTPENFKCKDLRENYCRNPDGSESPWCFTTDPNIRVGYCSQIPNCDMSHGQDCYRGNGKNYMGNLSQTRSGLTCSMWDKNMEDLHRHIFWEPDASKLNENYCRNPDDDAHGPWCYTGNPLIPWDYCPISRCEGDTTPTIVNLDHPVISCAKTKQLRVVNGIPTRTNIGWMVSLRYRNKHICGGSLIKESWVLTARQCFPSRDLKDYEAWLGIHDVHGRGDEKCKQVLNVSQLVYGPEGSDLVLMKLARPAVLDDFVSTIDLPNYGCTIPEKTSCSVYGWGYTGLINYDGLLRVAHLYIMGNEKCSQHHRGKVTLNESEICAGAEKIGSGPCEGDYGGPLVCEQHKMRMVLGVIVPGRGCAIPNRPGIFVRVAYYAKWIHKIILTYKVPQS

Row | IC50 (nM), HGF stimulated BrdU incorporation in 4MBr-5 cells [1] [nM] | EC50 in nM, HGF-stimulated c-Met phosphorylation in PC-3 cells, Average of Two Trials [2] [nM] | HGF-stimulated c-Met phosphorylation in PC-3 cells (assay of Example 9), Average of Two Trials [3] [nM] | IC50 (nM), HGF stimulated BrdU incorporation in 4MBr-5 cells [4] [nM] | Binder
1 | 19.2 | 1.39 |  |  | anti-hHGF monoclonal antibody 2F8 (antibody, mouse IgG1, kappa, V domains shown) VH: QVQLKQSGAELVRPGTSVKMSCKASGYTFTTYYIHWVNQRPGQGLEWIGKIGPGSGSTYYNEMFKDKATLTVDTSSSTAYMQLSSLTSDDSAVYFCARRGLGRGFDYWGQGTTLTVSS VL: DIVLTQSPASLAVSLGQRATISCKASQSVDYDGNSYINWYQQKPGQPPKVLIYVASNLESGIPARFSGSGSGTDFTLNIHPVEEEDAATYYCQQSIEDPPTFGAGTKLELKR
2 | 30.3 | 2 |  |  | anti-hHGF monoclonal antibody 3A12 (antibody, mouse IgG1, kappa, V domains shown) VH: EVQLVESGGGLVQPGGSLKISCAASGFTFSNYFMSWVRQTPEKRLEWVAYISSGGGSTYYPDSVKGRFTISRDNAKNTLYLQMNSLKSEDTAMYYCVRQGDGYYGDYAMDYWGQGTSVTVSS VL: DIQMTQSPASLSVSVGETVTITCRASENIYINLAWYQQKQGKSPQLLVHAATKLADGVPSRFSGSGSGTQYSLKINSLQSEDFGSYYCQHFWGTPYTFGGGTKLEIKR
3 | 51.1 | 2.28 |  |  | anti-hHGF monoclonal antibody 3D11 (antibody, mouse IgG1, kappa, V domains shown) VH: QVQLKESGPGLVAPSQSLSITCTVSGFSLTSYSLHWVRQPPGKGLEWLGVIWAGGNTNYNSSLMSRLTIRKDNSKSQVFLKMNSLQTDDTAMYYCARERFAYWGQGTLVTVSA VL: QIVLTQSPAIMSAYPGEKVTMTCSASSSVSYMHWYQQKSGTSPKRWIYDTSKLASGVPARFSGSGSGTSYSLTISSMEAEDAATYYCQQWSSNPLTFGAGTKLELKR
4 | 36.1 | 1.01 |  |  | anti-hHGF monoclonal antibody 3B6 (antibody, mouse IgG1, kappa, V domains shown) VH: QVQLQQSGAELVRPGSSVKISCKASGYVFSSYWMNWVKQRPGQGLEWIGQIYPGDGDSNYNGNFKGKATLTADKSSSTAYMQLSSLTSEDSAVYFCASQLGLRENYFDYWGQGTTLTVSS VL: DIKMTQSPSSMYASLGERVTITCKASQDIKSYLSWFQQKPGKSPKTLIYRVNRLVDGVPSRFSGSGSGQDSSLTITSLENEDMGIYYCLQYDEFPFTFGGGTKLEIKR
5 |  |  | 0.93 | 0.52 | sh2B8-9 (G1m(3)) = hu2B8 Hv5-51.1 + IgG1 constant G1m(3) allele 2 plus hu2B8 Kv1-39.1 + Kappa Km(3) allele 2 (antibody) heavy: not shown light: DIQMTQSPSSLSASVGDRVTITCKASENVVSYVSWYQQKPGKAPKLLIYGASNRNTGVPSRFSGSGSGTDFTLTISSLQPEDFATYYCGQSYNYPYTFGQGTKLEIKRTVAAPSVFIFPPSDEQLKSGTASVVCLLNNFYPREAKVQWKVDNALQSGNSQESVTEQDSKDSTYSLSSTLTLSKADYEKHKVYACEVTHQGLSSPVTKSFNRGEC

The next lines start with the binder.

Row | Binder | IC50 (nM), HGF stimulated BrdU incorporation in 4MBr-5 cells [1] [nM] | EC50 in nM, HGF-stimulated c-Met phosphorylation in PC-3 cells, Average of Two Trials [2] [nM] | HGF-stimulated c-Met phosphorylation in PC-3 cells (assay of Example 9), Average of Two Trials [3] [nM] | IC50 (nM), HGF stimulated BrdU incorporation in 4MBr-5 cells [4] [nM]
6 | anti-hHGF monoclonal antibody 2B8 (antibody, mouse IgG1, kappa) heavy: QVQLQQPGAELVKPGTSVKLSCKASGYTFTTYWMHWVNQRPGQGLEWIGEINPTNGHTNYNEKFKSKATLTVDKSSSTAYMQLSSLTSEDSAVYYCARNYVGSIFDYWGQGTTLTVSSAKTTPPSVYPLAPGSAAQTNSMVTLGCLVKGYFPEPVTVTWNSGSLSSGVHTFPAVLQSDLYTLSSSVTVPSSTWPSETVTCNVAHPASSTKVDKKIVPRDCGCKPCICTVPEVSSVFIFPPKPKDVLTITLTPKVTCVVVDISKDDPEVQFSWFVDDVEVHTAQTQPREEQFNSTFRSVSELPIMHQDWLNGKEFKCRVNSAAFPAPIEKTISKTKGRPKAPQVYTIPPPKEQMAKDKVSLTCMITDFFPEDITVEWQWNGQPAENYKNTQPIMDTDGSYFVYSKLNVQKSNWEAGNTFTCSVLHEGLHNHHTEKSLSHSPGK light: NIVMTQSPKSMSMSVGERVTLSCKASENVVSYVSWYQQKPAQSPKLLIYGASNRNTGVPDRFTGSGSATDFTLTISSVRAEDLADYHCGQSYNYPYTFGGGTRLEIKRADAAPTVSIFPPSSEQLTSGGASVVCFLNNFYPKDINVKWKIDGSERQNGVLNSWTDQDSKDSTYSMSSTLTLTKDEYERHNSYTCEATHKTSTSPIVKSFNRNEC | 1.41 | 0.287 | 0.91 | 0.86
7 | HE2B8-1 (LR2B8HC + IgG1 G1m(3) allele 1 plus LR2B8LC + Kappa Km(3) allele 1) (antibody, V domains shown) VH: QVQLVQPGAEVVKPGTSVKLSCKASGYTFTTYWMHWVNQAPGQGLEWIGEINPTNGHTNYNEKFKGKATLTVDKSTSTAYMELSSLRSEDTAVYYCARNYVGSIFDYWGQGTLLTVSS VL: DIVMTQSPDSMAMSVGERVTLNCKASENVVSYVSWYQQKPGQSPKLLIYGASNRNTGVPDRFSGSGSATDFTLTISSVQAEDVADYHCGQSYNYPYTFGQGTKLEIKR |  |  | 0.8 | 0.47
8 | HE2B8-2 (LR2B8HC + IgG1 G1m(3) allele 1 plus LRMR2B8LC + Kappa Km(3) allele 1) (antibody, V domains shown) VH: QVQLVQPGAEVVKPGTSVKLSCKASGYTFTTYWMHWVNQAPGQGLEWIGEINPTNGHTNYNEKFKGKATLTVDKSTSTAYMELSSLRSEDTAVYYCARNYVGSIFDYWGQGTLLTVSS VL: DIVMTQSPDSLAMSLGERVTLNCKASENVVSYVSWYQQKPGQSPKLLIYGASNRESGVPDRFSGSGSATDFTLTISSVQAEDVADYHCGQSYNYPYTFGQGTKLEIKR |  |  | 0.88 | 0.66
9 | HE2B8-3 (LRMR2B8HC + IgG1 G1m(3) allele 1 plus LR2B8LC + Kappa Km(3) allele 1) (antibody, V domains shown) VH: QVQLVQPGAEVKKPGTSVKLSCKASGYTFTTYWMHWVRQAPGQGLEWIGEINPTNGHTNYNQKFQGRATLTVDKSTSTAYMELSSLRSEDTAVYYCARNYVGSIFDYWGQGTLLTVSS VL: DIVMTQSPDSMAMSVGERVTLNCKASENVVSYVSWYQQKPGQSPKLLIYGASNRNTGVPDRFSGSGSATDFTLTISSVQAEDVADYHCGQSYNYPYTFGQGTKLEIKR |  |  | 0.79 | 0.55
10 | HE2B8-4 (LRMR2B8HC + IgG1 G1m(3) allele 1 plus LRMR2B8LC + Kappa Km(3) allele 1) (antibody, V domains shown) VH: QVQLVQPGAEVKKPGTSVKLSCKASGYTFTTYWMHWVRQAPGQGLEWIGEINPTNGHTNYNQKFQGRATLTVDKSTSTAYMELSSLRSEDTAVYYCARNYVGSIFDYWGQGTLLTVSS VL: DIVMTQSPDSLAMSLGERVTLNCKASENVVSYVSWYQQKPGQSPKLLIYGASNRESGVPDRFSGSGSATDFTLTISSVQAEDVADYHCGQSYNYPYTFGQGTKLEIKR |  |  | 0.75 | 0.58
11 | anti-hHGF monoclonal antibody 1A3 (antibody, mouse IgG1, kappa, V domains shown) VH: EVQLVESGGGLVQPGGSLKLSCAASEFTFSNYYMSWVRQTPEKRLQWVAYISPGGGSSYYPASVKGRFTISRDNAKNTLYLQMSSLKSEDTAMYYCARQGDGYYGDYAMDYWGQGTSVTVSS VL: DIQMTQSPASLSVSVGETVTITCRASENIYSNLAWYQQKQGKSPQLLVYAATNLADGVPSRFSGSGSGTQFSLKINSLQSEDFGTYYCQHFWGTPYTFGGGTKLEIKR | 4.69 | 0.684 |  | 
12 | anti-hHGF monoclonal antibody 1D3 (antibody, mouse IgG1, kappa, V domains shown) VH: EVQLVESGGGLVQPGGSLKLSCAASGFTFSDYYMSWVRQTPEKRLEWVAYISSGGGSTYYPDSVKGRFTISRDNAKNTLYLQMSSLKSEDTAIYYCVRQGDGYYGDYAMDYWGQGTSVIVSS VL: DIQMTQSPASLSVSVGETVTITCRTSENIYSNLAWYQQKQGKSPQLLIYAATNLADGVPSRFSGSGSGTQFSLRINSLQSEDFGRYYCQHFWGTPYTFGGGTKLEIKR | 4.99 | 0.984 |  | 
13 | anti-hHGF monoclonal antibody 1F3 (antibody, mouse IgG1, kappa, V domains shown) VH: EVQLVESGGGLVQSGGSLKLSCAASGFTFSNYFMSWVRQTPEKRLEWVAYISSGGGSTYYPDSVKGRFTISRDNAKNTLYLQMSSLKSEDTAMYYCVRQGDGYYGDYAMDYWGQGTSVTVSS VL: DIQMTQSPASLSVSVGETVTITCRASENIYSNLAWYQQKQGKSPQLLVYDATHLPDGVPSRFSGSGSGTQFSLKINSLQSEDFGSYYCQHFWGTPYTFGGGTRLEIKR | 1.94 | 1.19 |  | 
